According to patent US20070203054A1 (YISSUM RESEARCH DEVELOPMENT COMPANY OF THE HEBREW …, published 2007):

B1: CD99-Ig fusion protein (Fc fusion)
chain: DGGFDLSDALPDNENKKPTAIPKKPSAGDDFDLGDAVVDGENDDPRPPNPPKPMPNPNPNHPSSSGSFSDADLADGVSGGEGKGGSDGGGSHRKEGEEAD
B2: NKp30-Ig fusion protein (Fc fusion, human, UniProt O14931 19-135, looked up, not shown: a dimerising Fc or GST)
chain: LWVSQPPEIRTLEGSSAFLPCSFNASQGRLAIGSVTWFRDEVVPGKEVRNGTPEFRGRLAPLASSRFLHDHQAELHIRDVRGHDASIYVCRVEVLGLGVGTGNGTRLVVEKEHPQLG

Target: HA of influenza virus X-127 (H1N1) on infected cells (influenza A virus X-127 (H1N1))
Test: not given

Row | Molecule | MFI
1 | NKp44-Ig fusion protein (from UniProt O95944 22-190) (Fc fusion) | 220
2 | NKp46D1-Ig fusion protein (membrane distal domain of NKp46 fused to Fc of human IgG1) (from UniProt O76036 22-120) (Fc fusion) | 5
3 | NKp46-Ig fusion protein (from UniProt O76036 22-254) (Fc fusion) | 107
4 | NKp30-Ig fusion protein (from UniProt O14931 19-135) (Fc fusion) | 6
5 | NKp46D2-Ig fusion protein produced in COS cells (membrane proximal domain of NKp46 fused to Fc of human IgG1) (from UniProt O76036 121-254) (Fc fusion) | 160
6 | B1 | 1

Target: rosettes of HA from X31 (A/Aichi/2/68xpr/8/34) H3N2 influenza virus (influenza A virus X31 …, UniProt P03437 17-520)
Test: ELISA, plates coated with HA rosettes

Row | Molecule | binding result
7 | B2 | no binding
